Where a chain is given by its changes, count along the chain named. Numbers in names are those of the source.
T1: human Fcγ receptor hFcgRIIa (R) (human, UniProt P12318 36-217)
T1 construct: also called FcγRIIa (type R); FcγIIA
T1 chain: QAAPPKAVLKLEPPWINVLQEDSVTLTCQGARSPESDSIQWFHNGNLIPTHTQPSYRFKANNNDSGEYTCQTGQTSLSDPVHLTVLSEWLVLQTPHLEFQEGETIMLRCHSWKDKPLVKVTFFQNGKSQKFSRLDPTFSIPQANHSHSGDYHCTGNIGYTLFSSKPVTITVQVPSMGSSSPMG

T2: human Fcγ receptor hFcgRIIa (H) (human, UniProt P12318 36-217)
T2 construct: also called FcγRIIa (type H); FcγIIA
T2 sequence: T1 chain with R133H

T3: human Fcγ receptor hFcgRIIb (human, UniProt P31994 43-217, limits assumed)
T3 construct: Construct used in the SPR assay is not described; also called FcγRIIb; FcγIIB
T3 sequence: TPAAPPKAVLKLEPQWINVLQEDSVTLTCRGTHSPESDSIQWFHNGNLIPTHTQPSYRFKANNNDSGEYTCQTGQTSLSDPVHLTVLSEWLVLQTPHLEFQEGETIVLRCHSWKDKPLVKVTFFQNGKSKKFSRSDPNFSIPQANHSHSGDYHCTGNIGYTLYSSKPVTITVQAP

B1: TS20 (antibody)
heavy: QVQLQESGPGLVRPSQTLSLTCTVSGYSITSDHAWSWVRQPPGRGLEWIGYISYSGITTYNPSLKSRVTMLRDTSKNQFSLRLSSVTAADTAVYYCARSLARTTAMDYWGQGSLVTVSSASTKGPSVFPLAPSSKSTSGGTAALGCLVKDYFPEPVTVSWNSGALTSGVHTFPAVLQSSGLYSLSSVVTVPSSSLGTQTYICNVNHKPSNTKVDKKVEPKSCDKTHTCPPCPAPELLGGPSVFLFPPKPKDTLMISRTPEVTCVVVDVSHEDPEVKFNWYVDGVEVHNAKTKPREEMYNSTYRVVSVLTVLHQDWLNGKEYKCKVSNSALPHPIEKTISKAKGQPREPQVYTLPPSRDELTKNQVSLTCLVKGFYPSDIAVEWESNGQPENNYKTTPPVLDSDGSFFLYSKLTVDKSRWQQGNVFSCSVMHEALHNHYTQKSLSLSP
light: not shown
notes: anti-IL6R IgG1, G1d with Q295M/K326S/A330H (EU)
B2: TS22 (antibody)
heavy: B1 heavy with M297L
light: not shown
notes: anti-IL6R IgG1, G1d with Q295L/K326S/A330H (EU)
B3: TS24 (antibody)
heavy: B1 heavy with H332Y
light: not shown
notes: anti-IL6R IgG1, G1d with Q295M/K326S/A330Y (EU)
B4: TS25 (antibody)
heavy: B1 heavy with S328A
light: not shown
notes: anti-IL6R IgG1, G1d with Q295M/K326A/A330H (EU)
B5: TS30 (antibody)
heavy: B1 heavy with L236K, L237K, S241K, Y298G, S300G, N327G, S328K, H332A
light: not shown
notes: anti-IL6R IgG1, G1d with L234K/L235K/S239K/Q295M/Y296G/S298G/N325G (EU)
B6: TS31 (antibody)
heavy: B1 heavy with L236K, L237K, S241K, Y298G, S300G, N327H, S328K, H332A
light: not shown
notes: anti-IL6R IgG1, G1d with L234K/L235K/S239K/Q295M/Y296G/S298G/N325H (EU)
B7: TS32 (antibody)
heavy: B1 heavy with L236K, L237K, H270K, D272F, Y298G, S300G, N327G, S328K, H332A
light: not shown
notes: anti-IL6R IgG1, G1d with L234K/L235K/H268K/D270F/Q295M/Y296G/S298G/N325G (EU)
B8: TS33 (antibody)
heavy: B1 heavy with L236K, L237K, H270K, D272F, Y298G, S300G, N327H, S328K, H332A
light: not shown
notes: anti-IL6R IgG1, G1d with L234K/L235K/H268K/D270F/Q295M/Y296G/S298G/N325H (EU)
B9: TS34 (antibody)
heavy: B1 heavy with L236K, L237K, Y298G, S300G, N327G, S328K, H332A
light: not shown
notes: anti-IL6R IgG1, G1d with L234K/L235K/Q295M/Y296G/S298G/N325G (EU)
B10: TS36 (antibody)
heavy: B1 heavy with L236K, L237R, S241K, H270K, D272F, Y298G, S300G, N327G, S328K, H332A
light: not shown
notes: anti-IL6R IgG1, G1d with L234K/L235R/S239K/H268K/D270F/Q295M/Y296G/S298G/N325G (EU)
B11: TS37 (antibody)
heavy: B1 heavy with L236K, L237R, S241K, H270K, D272F, Y298G, S300G, N327H, S328K, H332A
light: not shown
notes: anti-IL6R IgG1, G1d with L234K/L235R/S239K/H268K/D270F/Q295M/Y296G/S298G/N325H (EU)
B12: TS39 (antibody)
heavy: B1 heavy with L236K, L237R, S241K, Y298G, S300G, N327H, S328K, H332A
light: not shown
notes: anti-IL6R IgG1, G1d with L234K/L235R/S239K/Q295M/Y296G/S298G/N325H (EU)
B13: TS40 (antibody)
heavy: B1 heavy with L236K, L237R, H270K, D272F, Y298G, S300G, N327G, S328K, H332A
light: not shown
notes: anti-IL6R IgG1, G1d with L234K/L235R/H268K/D270F/Q295M/Y296G/S298G/N325G (EU)
B14: TS41 (antibody)
heavy: B1 heavy with L236K, L237R, H270K, D272F, Y298G, S300G, N327H, S328K, H332A
light: not shown
notes: anti-IL6R IgG1, G1d with L234K/L235R/H268K/D270F/Q295M/Y296G/S298G/N325H (EU)
B15: TS42 (antibody)
heavy: B1 heavy with L236K, L237R, Y298G, S300G, N327G, S328K, H332A
light: not shown
notes: anti-IL6R IgG1, G1d with L234K/L235R/Q295M/Y296G/S298G/N325G (EU)
B16: TS43 (antibody)
heavy: B1 heavy with L236K, L237R, Y298G, S300G, N327H, S328K, H332A
light: not shown
notes: anti-IL6R IgG1, G1d with L234K/L235R/Q295M/Y296G/S298G/N325H (EU)
B17: TS61 (antibody)
heavy: B1 heavy with M297Q, S328K, H332A, G387D, Q388P, N391S
light: not shown
notes: anti-IL6R IgG1, G1d with G385D/Q386P/N389S (EU)
B18: TS2 (antibody)
heavy: B1 heavy with V268I, H270Q, E271D, D272E, M297Q, S328K, H332A
light: not shown
notes: anti-IL6R IgG1, G1d with V266I/H268Q/E269D/D270E (EU); also called TS02
B19: TS7 (antibody)
heavy: B1 heavy with M297Q, S326H
light: not shown
notes: anti-IL6R IgG1, G1d with K326S/S324H/A330H (EU); also called TS07
B20: TS13 (antibody)
heavy: B1 heavy with S269P, H270M, D272F, M297Q, S328K, H332A
light: not shown
notes: anti-IL6R IgG1, G1d with S267P/H268M/D270F (EU)

Molecular target: T1, human Fcγ receptor hFcgRIIa (R)
Test: SPR, antibody captured on Protein A
Procedure: (§1) Furthermore, binding ability to hFcgRs was measured by the method described in Reference Example 3.
(§2) Interactions between antibodies and hFcgRs (hFcgRIa, hFcgRIIa(R), hFcgRIIa(H), hFcgRIIb, hFcgRIIIa(F), and hFcgRIIIa(V)) were analyzed using Biacore T100 (GE Healthcare). HBS-EP+(GE Healthcare) was used for the running buffer, and the measurement temperature was set at 25° C. Protein A (Invitrogen) was immobilized by the amino coupling method, and an antibody of interest was captured thereon. Then, hFcγR solutions diluted using the running buffer were injected to allow interaction with the captured antibody at a flow rate of 30 μL/min for five minutes for hFcγRIa, and at a flow rate of 5 μL/min for one minute for the other hFcγRs. […] Since the hFcγR binding level depends on the amount of captured antibodies, the FcgR-binding levels were corrected so that the capture level of each antibody would be 200 RU (resonance unit) for hFcgRIa and 1000 RU (resonance unit) for the other hFcgRs. The captured antibodies were washed by allowing 10 mM glycine-HCl (pH 1.5) to react for 30 seconds at a flow rate of 30 μL/min to recycle the chip for reuse.

Row | Binder | binding relative to G1 (=100)
1 | B1 | 116
2 | B2 | 153
3 | B3 | 107
4 | B4 | 123
5 | B5 | 1.2
6 | B6 | 1.3
7 | B7 | 0.9
8 | B8 | 1.2
9 | B9 | 0.9
10 | B10 | 1
11 | B11 | 0.9
12 | B12 | 1.5
13 | B13 | 1.2
14 | B14 | 1.2
15 | B15 | 1.3
16 | B16 | 1.7
17 | B17 | 106

Each binder was assayed against T2, human Fcγ receptor hFcgRIIa (H) (assay: SPR, antibody captured on Protein A).
Procedure: as §1, §2

Row | Binder | binding relative to G1 (=100)
18 | B1 | 132
19 | B2 | 157
20 | B3 | 122
21 | B4 | 125
22 | B5 | 0.2
23 | B6 | -0.5
24 | B7 | 1
25 | B8 | 0.7
26 | B9 | 1.4
27 | B10 | 0.7
28 | B11 | 0.7
29 | B12 | 1
30 | B13 | 0.7
31 | B14 | 1.4
32 | B15 | 1.6
33 | B16 | -0.1
34 | B17 | 106

What follows are binders tested against T4, human Fcγ receptor hFcgRIIIa (V) (human, UniProt P08637 17-208) (assay: SPR, antibody captured on Protein A).
T4 construct: also called FcγRIIIa allotype V158; FcγIIIA
Procedure: as §1, §2

T4 sequence (P08637 other isoform, or with tags, fused parts or gaps limits assumed): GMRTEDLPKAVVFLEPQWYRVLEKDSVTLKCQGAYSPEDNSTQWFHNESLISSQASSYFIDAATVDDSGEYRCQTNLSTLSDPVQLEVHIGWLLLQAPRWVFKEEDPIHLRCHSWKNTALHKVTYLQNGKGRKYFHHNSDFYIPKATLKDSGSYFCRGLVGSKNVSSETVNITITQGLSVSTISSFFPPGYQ

Row | Binder | binding relative to G1 (=100)
35 | B1 | 91.2
36 | B2 | 107
37 | B3 | 121
38 | B4 | 92.8
39 | B5 | 1.1
40 | B6 | 1.2
41 | B7 | 0.9
42 | B8 | 1
43 | B9 | 1.5
44 | B10 | 1.1
45 | B11 | 0.6
46 | B12 | 0.8
47 | B13 | 1
48 | B14 | 1
49 | B15 | 1.3
50 | B16 | 1.1
51 | B17 | 96.6

These binders were tested against T5, human Fcγ receptor hFcgRIa (human, UniProt P12314 16-292, limits assumed) (assay: SPR, antibody captured on Protein A).
T5 construct: Construct used in the SPR assay is not described; also called hFcγRIa; FcγI
Procedure: as §1, §2

T5 sequence (P12314 16-292 limits assumed): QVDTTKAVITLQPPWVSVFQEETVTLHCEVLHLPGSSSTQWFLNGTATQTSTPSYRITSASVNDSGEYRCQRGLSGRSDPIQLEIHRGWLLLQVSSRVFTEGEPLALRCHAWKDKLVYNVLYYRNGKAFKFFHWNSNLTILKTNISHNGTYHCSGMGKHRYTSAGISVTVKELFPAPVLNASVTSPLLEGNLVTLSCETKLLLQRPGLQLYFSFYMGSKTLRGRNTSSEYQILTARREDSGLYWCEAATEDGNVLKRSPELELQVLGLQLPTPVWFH

Row | Binder | binding relative to G1 (=100)
52 | B1 | 106
53 | B2 | 108
54 | B3 | 107
55 | B4 | 105
56 | B5 | 0.1
57 | B6 | 0.2
58 | B7 | -0.5
59 | B8 | -0.9
60 | B9 | -0.9
61 | B10 | -0.4
62 | B11 | 0.6
63 | B12 | 0
64 | B13 | -1.8
65 | B14 | 0.2
66 | B15 | -0.2
67 | B16 | -0.9
68 | B17 | 101

Each binder was assayed against T3, human Fcγ receptor hFcgRIIb (assay: SPR, antibody captured on Protein A).
Procedure: as §1, §2

Row | Binder | binding relative to G1 (=100)
69 | B1 | 131
70 | B2 | 232
71 | B3 | 114
72 | B4 | 137
73 | B5 | 3.8
74 | B6 | 3.6
75 | B7 | 1.5
76 | B8 | 4.6
77 | B9 | 4.2
78 | B10 | 4.1
79 | B11 | 4.5
80 | B12 | 2.5
81 | B13 | 0.3
82 | B14 | 4.2
83 | B15 | 6.9
84 | B16 | 6.2
85 | B17 | 112

Molecular target: T1, human Fcγ receptor hFcgRIIa (R)
Test: SPR, antibody captured on Protein A
Remark: another data set of the same source
Procedure: (§3) The CH2 domain, which was modified in this examination, is known to be involved in interaction with several human Fcγ receptors (hereinafter denoted as hFcgRs) which affect effector functions. Therefore, the binding of TS1 and TS19 prepared by using the H chain of anti-IL6R produced in Example 2 to hFcgRs was measured, according to the method described in Reference Example 3.
as §2

Row | Binder | binding relative to G1 (=100)
86 | B18 | 67.3
87 | B19 | 117
88 | B20 | 1.2

Molecular target: T2, human Fcγ receptor hFcgRIIa (H)
Test: SPR, antibody captured on Protein A
Remark: another data set of the same source
Procedure: as §3, §2

Row | Binder | binding relative to G1 (=100)
89 | B18 | 123
90 | B20 | 1.2

Molecular target: T4, human Fcγ receptor hFcgRIIIa (V)
Test: SPR, antibody captured on Protein A
Remark: another data set of the same source
Procedure: as §3, §2

Row | Binder | binding relative to G1 (=100)
91 | B18 | 130
92 | B19 | 86.2
93 | B20 | 1.4

Molecular target: T5, human Fcγ receptor hFcgRIa
Test: SPR, antibody captured on Protein A
Remark: another data set of the same source
Procedure: as §3, §2

Row | Binder | binding relative to G1 (=100)
94 | B18 | 98.3
95 | B19 | 99.8
96 | B20 | 63

Molecular target: T3, human Fcγ receptor hFcgRIIb
Test: SPR, antibody captured on Protein A
Remark: another data set of the same source
Procedure: as §3, §2

Row | Binder | binding relative to G1 (=100)
97 | B18 | 61.6
98 | B19 | 126
99 | B20 | 3.4

Reference: US20200181257A1 (Chugai, published 2020)
